Several values for one entry are separate records, joined by “and”; a condition that tells them apart may be missing. Equal values may be shown once.
Experiments:
[1] = target: T1, human CD3ε (human, UniProt P07766 23-207); experiment: flow cytometry on Jurkat T cells expressing human CD3
T1 construct: whole, on cells; On Jurkat cells as part of the TCR/CD3 complex; also called CD3 epsilon
Description: a) Anti-ROR1/anti-CD3 T cell bispecific antibodies generated in Example 3 were also analyzed by flow cytometry for their binding properties to human ROR1 expressed on primary B-CLL cells or human CD3 expressed on human leukemic T cells Jurkat (ATCC TIB-152). Jurkat T cells were cultured in RPMI supplemented with 10% fetal calf serum. Briefly, cultured cells were harvested, counted and cell viability was evaluated using ViCell. Viable cells were then adjusted to 2×10⁶ cells per ml in FACS Stain Buffer (BD Biosciences) containing 0.1% BSA. 100 μl of this cell suspension were further aliquoted per well into a round-bottom 96-well plate. […] After incubation for 30 min at 4° C., cells were centrifuged (5 min, 350×g), washed twice with 150 μl/well BSA-containing FACS Stain Buffer (BD Biosciences), then cells were fixed using 100 ul BD Fixation buffer per well (#BD Biosciences, 554655) at 4° C. for 20 min, resuspended in 120 μl FACS buffer and analyzed using BD FACS CantoII. Binding of the anti-ROR1/anti-CD3 T cell bispecific antibodies to B-CLL cells and T cells were evaluated and the mean fluorescence intensity was determined gated on either ROR1-expressing B-CLL cells or CD3-expressing Jurkat T cells and plotted in histograms or dot plots. […]

[2] = target: T2, human ROR1 (human, UniProt Q01973 30-937); experiment: flow cytometry on ROR1-positive RPMI8226 cells
T2 construct: whole, on cells; Endogenous ROR1 on ROR1-positive cells; also called tyrosine-protein kinase transmembrane receptor ROR1; neurotrophic tyrosine kinase, receptor-related 1
Description: a) Anti-ROR1 antibodies coming either from the immunization approach and/or from the screening of the recombinant in vitro library described above are analyzed by flow cytometry for binding to human ROR1 on HEK293-ROR1 cells. Briefly, cultured cells are harvested, counted and cell viability is evaluated using the Trypan Blue exclusion method. Viable cells are then adjusted to 2×10⁶ cells per ml in BSA-containing FACS Stain Buffer (BD Biosciences). 90 μl of this cell suspension are further aliquoted per well into a round-bottom 96-well plate. 10 μl of the anti-ROR1 antibodies or corresponding IgG control are added to the cell-containing wells to obtain final concentrations of 0.1 pM to 200 nM. All constructs and control IgG are used at the same molarity. […] The samples are resuspended in 200 μl/well FACS Stain Buffer and acquired and analyzed using an LSR II flow cytometer with FACSDiva® software (BD Biosciences). The mean fluorescence intensity (MFI) is plotted as a function of anti-ROR1 antibody concentration to obtain the binding curve and to calculate the effective antibody concentration to reach 50% of maximal binding (EC₅₀). […]
c) ROR1 expression was then assessed on B lymphocyte myeloma RPMI8226 cell lines by flow cytometry, using the methods described above.

T2 sequence (Q01973 30-937): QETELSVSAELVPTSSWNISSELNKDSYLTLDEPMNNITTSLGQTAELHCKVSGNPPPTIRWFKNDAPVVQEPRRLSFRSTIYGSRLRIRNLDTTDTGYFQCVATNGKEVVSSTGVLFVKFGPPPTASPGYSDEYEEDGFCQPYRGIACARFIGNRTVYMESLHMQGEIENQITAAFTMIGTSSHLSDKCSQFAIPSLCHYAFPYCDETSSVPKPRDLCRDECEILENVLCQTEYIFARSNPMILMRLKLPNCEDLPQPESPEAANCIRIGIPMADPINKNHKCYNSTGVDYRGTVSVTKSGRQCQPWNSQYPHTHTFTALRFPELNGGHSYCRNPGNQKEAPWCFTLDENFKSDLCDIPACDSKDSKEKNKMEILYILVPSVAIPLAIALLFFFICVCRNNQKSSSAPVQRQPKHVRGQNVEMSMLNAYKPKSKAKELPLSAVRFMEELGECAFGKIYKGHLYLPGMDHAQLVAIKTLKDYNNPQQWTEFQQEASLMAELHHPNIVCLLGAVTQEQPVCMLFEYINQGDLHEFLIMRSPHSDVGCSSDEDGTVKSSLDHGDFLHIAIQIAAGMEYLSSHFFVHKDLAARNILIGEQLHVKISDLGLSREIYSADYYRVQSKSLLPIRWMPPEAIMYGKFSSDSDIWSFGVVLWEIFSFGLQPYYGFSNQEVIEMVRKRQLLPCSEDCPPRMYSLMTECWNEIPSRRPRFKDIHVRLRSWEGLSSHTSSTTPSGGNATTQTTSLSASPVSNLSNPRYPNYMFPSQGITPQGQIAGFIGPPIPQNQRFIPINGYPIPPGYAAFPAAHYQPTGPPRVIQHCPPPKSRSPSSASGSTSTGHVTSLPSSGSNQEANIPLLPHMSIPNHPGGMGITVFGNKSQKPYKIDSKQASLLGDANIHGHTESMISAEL
T1 sequence (P07766 23-207): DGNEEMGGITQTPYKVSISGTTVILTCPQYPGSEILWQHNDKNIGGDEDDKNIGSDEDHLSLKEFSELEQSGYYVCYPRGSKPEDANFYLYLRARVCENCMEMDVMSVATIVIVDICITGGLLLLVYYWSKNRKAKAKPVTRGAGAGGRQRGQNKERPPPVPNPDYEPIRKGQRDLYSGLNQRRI

B1: anti-ROR1 IgG1 antibody (antibody, V domains shown)
VH: QEQLVESGGRLVTPGGSLTLSCKASGFDFSAYYMSWVRQAPGKGLEWIATIYPSSGKTYYATWVNGRFTISSDNAQNTVDLQMNSLTAADRATYFCARDSYADDGALFNIWGPGTLVTISS
VL: ELVLTQSPSVSAALGSPAKITCTLSSAHKTDTIDWYQQLQGEAPRYLMQVQSDGSYTKRPGVPDRFSGSSSGADRYLIIPSVQADDEADYYCGADYIGGYVFGGGTQLTVLG
notes: Bivalent human IgG1 kappa; Alexa488-labelled in some assays; also called anti-ROR1 antibody; anti-ROR1 IgG antibody
Question: What does the source list for B1?
Answer: binding result [1]: no binding (tested: 3 nM to 500 nM); EC50 [2]: 0.087 nM and 0.013 µg/mL
